Reference: publication PMC12273574, “Biochemical and structural characterization of a GNAT superfamily protein acetyltransferase from Helicobacter pylori” (The Journal of Biological Chemistry, 2025)

Biological target: DNA processing protein A (DprA) from Helicobacter pylori strain J99 (Helicobacter pylori strain J99) (UniProt B5ZAA1)
Assay: SPR; Biacore 3000; DprA immobilised on a CM5 chip (~500 RU), HP0935 passed over at varying concentrations; 50 mM Tris-Cl pH 7.4, 25 °C, 20 μl/min, 300 s dissociation; Langmuir binding fit

HP0935, N-acetyltransferase domain-containing protein (GNAT superfamily protein acetyltransferase) from Helicobacter pylori strain 26695 (from UniProt O25589 2-161) (enzyme)
Kd: 3.28 µM
